Experimental findings from the nanobody polyreactivity screen of Harvey et al. (2022) are described below.

This data set is described as follows: yeast display, Sf9 membrane polyspecificity reagent, FACS + sequencing; frameworks hold sequencing errors. The essentials:
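Sorting gates, low and high (top ~1%), were placed on anti-HA fluorescence to track expression and on streptavidin fluorescence to track reagent binding. A clone's polyreactivity label is taken from the gate it came out of. The reagent was 10% biotinylated, detergent-solubilized Sf9 membrane, applied for 1 hour at 4 °C to galactose-induced yeast display cells.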
In the case of “QVKLVESGVGLVKAGVSLRLSSAASGFTFYSYAMGCYRQAPGKESELVAAISWSGSRTYYADSVKGRFTISRDNAKNTVYLQMNSLKPEDTGVYYCAAYSYVRYSSWSDYWGLGTQVTVSS”, the “polyreactivity (PSR sort gate)” value was “high polyreactivity”.

For “QVKLVESRGGLVQAGGSLRLSCAASARIFVHNAKGCYRQAPGKAREFDAAITRRGGSTYADSVKGRFRISRDNAKNTVYLQMTSLKPEDTAVYYCNAESYYGIFRYNYDYWGQGTQVTVSS”, the “polyreactivity (PSR sort gate)” value was “high polyreactivity”.

As to “QVKLVETGGGLVQAGGSLRLSCAASGFIFYKYAMGWYRQAPGKERELVASITSGGITNYADSVKGRFTISRDNAKNTVYLQMNSLKPVDTAVYYCNVRWYSRWLITTDYNYWGQGTQVTVSS”, the “polyreactivity (PSR sort gate)” value is “high polyreactivity”.

With “QVKRVESGGGLVQAGGSLRLSCAASGIMFSPNDMGRFRQGPGKERELVARITTDGSSTYYADSVKGRFTISRDNAKNTVYLQINSLKPEDTAVYSCNADQLWYSLFDYWGQGTLVTVSS”, the “polyreactivity (PSR sort gate)” value is “high polyreactivity”.

For the sequence “QVLIVESGGGLVQAGGSLRLSCADSGLTLAHYTMGWYRQSPGKERELVAAITFSGGRTYYADSVKGRFTISRDNAKNTVYLQMNSLKPEDTAVYYCNDEYQWGGYGYDYWGQGTQVTVSS”, the “polyreactivity (PSR sort gate)” value is “low polyreactivity”.

On to “QVLLEESGGGLVQAGGSLRLSCAASGRIFLRKVMGWYRQAPGKERELVAAISLSGASTYYADSVKGRFTISRDNAKNTVYLQMNCLKPEDTAVYYCAADITILYDYWGQGTQVTVSS”, for which the “polyreactivity (PSR sort gate)” value was “low polyreactivity”.

Take “QVLLQESGGGLVQAGGSLRLSCAASGNIFSAGGMGWYRQAPVNERELVAGIGTGTSTNYADSVKGRFTISRDNAKNTVYLQMNILKPEDTAVYYCAAAYYSGLSHWYWGQGTQVTVSS”: the “polyreactivity (PSR sort gate)” value was “low polyreactivity”.

On to “QVLLQESGGGLVQAGGSLRLSCAASGNIFSAGGMGWYRQAPVNERELVAGIGTGTSTNYADSVKGRFTISRDNAKNTVYLQMTSLKPEVTAVYYCAAAYYSGLSHWYWGQGTQVTVSS”, for which the “polyreactivity (PSR sort gate)” value was “low polyreactivity”.

Consider “QVLLQESGGGLVQAGGSLRLSCAASGNIFSAGGMGWYRQAPVNERELVAGIGTGTSTNYADSVKGRFTISRDNANNTVYLQMNSLKPEDTAVYYCAAAYYSGLSHWYWGQGTQVTVSS”, for which the “polyreactivity (PSR sort gate)” value is given as “low polyreactivity”.

“QVLLQESGGGLVQAGGSLRLSCAASGSIFLFYTMGWSRQAPVKEREFVAGITLGTTTYNADSVKGRFTISRDNVKNTVYLQMNSLKPEDTAVYYCAVAVGHYTEFWYWGQGTQVTMSS”: the “polyreactivity (PSR sort gate)” value is “high polyreactivity”.

For the sequence “QVLLQESGGGLVQAGGSLRLSCAASGSIFLFYTMGWYRQAPVKEREFVAGITLGTTTYNADSVKGRFTISRDNVKNTVYLQMNSLKPEATAVYYCAVAVGHYTVFWYWGQGTQVTMSS”, the “polyreactivity (PSR sort gate)” value is listed as “high polyreactivity”.

For the sequence “QVLLQESGGGLVQAGGSLRLSCAASGSIFLFYTMGWYRQAPVKEREFVAGITLGTTTYNADSVKGRFTISRDNVKNTVYLQMNSLKPEDTAVYYFAVAVGHYTEFWYWGQGTQVTMSS”, the “polyreactivity (PSR sort gate)” value is “high polyreactivity”.

For “QVLLQESGGGLVQAGGSLRLSCAASGTISTDIRMGLYSLAPGKAREFVASIDGCSTTYYADSVKGRFTISRDNAKNTVYLKMNSLKPVDTAMYYCAAREATEFYLYYWGQGTQVTVSS”, the “polyreactivity (PSR sort gate)” value was “low polyreactivity”.

As for “QVLLQESGGGLVQAGGSLRQSCAASGNIFSAGGMGWYRQAPVNERELVAGIGTGTSTNYADSVKGRFTISRDNAKNTVYLQMNSLKPEDTAVYFCAAAFYSGLSHWYWGQGTQVTVSS”, the “polyreactivity (PSR sort gate)” value was “low polyreactivity”.

As to “QVLLQESGGLLQAGCSLRMSCAASGSISTALSMVWYRQAPGKERELVATISDGASTNYADSVKGRFTISRVNAKNTVYLQMNSLKPEDTEVYYCAAQSQYRPDHRYWGQGTQVTVSS”, the “polyreactivity (PSR sort gate)” value is recorded as “high polyreactivity”.

Regarding “QVLLVEAGGGLVQAGGSLRLSCAASGRIFRRYAMGWYRQAPGKERELVAAISSGGGSTYYADSVKGRFTISRDNAKNTVYLQMNSLKPEDTAVYYCNTDFYYDDVSQAHDYWGQGTQVTVSS”, the “polyreactivity (PSR sort gate)” value was “high polyreactivity”.

For “QVLLVESAVGLVQAVGSLRLSCAASGSICYTNGMGWYRQAPGNERELVASITRSGGSTYYADSVKGRFTISRDNAKNSVYLQMNRLKPEDTAVYYCATSWGYRGLWGLRFDYWGQGTQVSVSS”, the “polyreactivity (PSR sort gate)” value is given as “low polyreactivity”.

Consider “QVLLVESGGGFVQAGGSLRLSCSASGSIFSPYTMGWYRQATGKERELVAAISRGGNTYYADSVKGRFTISRDNAKNTVYLQMNSLKPEDTAVYYCAARAKYDRRTDGTSGYDYWGQGTQVTVSS”, for which the “polyreactivity (PSR sort gate)” value is “low polyreactivity”.

Regarding “QVLLVESGGGLVQAGGILRLSCAASGLTFTYYAMGWYRQAPGKERELVAAISRCGTGTYYADSVKGRFTISRDNAKNTVYLHMNSLKPEDTAVYYCATLPGRYFTANEYWGQGTQVTVSS”, the “polyreactivity (PSR sort gate)” value is listed as “high polyreactivity”.

For the sequence “QVLLVESGGGLVQAGGILRLSCAASGNILGYNAMGWSRQAPGKERELVAAISWIGGSTYYADSVKGRFTISRDNAKNTVYLQMNSLKQEDTAVYYCASRYRTYFTYEYWGQVTQVTVSS”, the “polyreactivity (PSR sort gate)” value is “low polyreactivity”.

Take “QVLLVESGGGLVQAGGSHRLSCAASGITIRFYAMGWYRQAPGKEREFHAAISRSGSTYYADSVKGRFTISRDNAKNTVYLHLNSVKPEDTAVYYCAADSYRSAQGLDYWGQGTQVTVSS”: the “polyreactivity (PSR sort gate)” value is recorded as “high polyreactivity”.

On to “QVLLVESGGGLVQAGGSLRLSCAASGFTFGVYAMRWYRQAPGKERELVAAISTTVGSTYYADSVKGRFTISRDNAKNTVYLQMNSLKPEDTAVYYCHYPYDYWGQATQVTVSS”, for which the “polyreactivity (PSR sort gate)” value was “low polyreactivity”.

“QVLLVESGGGLVQAGGSLRLSCAASGLTFRYYAMGWYRQAPGKERELVAAITSGGSTYYADSVKGRFTISRDNAKNTVYLQMNSLKPEDTAVYYCNKLLGRTVRHDYWGQGTQVTVSS”: the “polyreactivity (PSR sort gate)” value is on record as “high polyreactivity”.

“QVLLVESGGGLVQAGGSLRLSCAASGRTFRGNAMGWYRQAPGKERELVAAISRSGGTTYYADSVKGRFTISRYNAKNTVYLQMNSLKPEDTAVYYCNRGWATWHGPDDYWGQGTQVTVSS”: the “polyreactivity (PSR sort gate)” value is reported as “high polyreactivity”.

For “QVLLVESGGGLVQAGGSLRLSCAASGRTFYNYSMGWYRQAPGKERELVAAISGGGTTNYADTVKGRFTISRDNAKNTVYLQMNSLKPEDTAVYSCNAARTRWATGYDYWGQGTQVTVSS”, the “polyreactivity (PSR sort gate)” value is recorded as “low polyreactivity”.

Turning to “QVLLVESGGGLVQAGGSLRLSCAASGSIFGAYAMGWYRQAPGKVRELVAAINYGGATTYYADSVKGRYTISRDLAKNTVYLQMNSLKPQDTAVYYCAADNDTDHSSATYGYDYWGQGTQVTVSS”, the “polyreactivity (PSR sort gate)” value was “low polyreactivity”.

With “QVLLVESGGGLVQAGGSLRLSCAASGSIFGYKDMGWYRQAPGKERELVASITRGGGRTRYADSVKGRFTISRDNAKNTVYLQMNSLKPEDTAVYYCAADKLSYSYVRPPRNHEDYWGQGTQVTVSS”, the “polyreactivity (PSR sort gate)” value is listed as “low polyreactivity”.

Take “QVLLVESGGGLVQAGGSLRLSCAASGSTIRYYAMGWYRQAPGKERELVAAISWRGGSTYYADSVKGRFTISRDNAKYTVYLQMNSLKPEDTAVYYCAVEAVAYGFFHYDYWGQGTQVTVSS”: the “polyreactivity (PSR sort gate)” value is reported as “high polyreactivity”.

For “QVLLVESGGGLVQAGGSLRLSCSASGNAMGWYRQAPGKERELVAAITRRGGSTYYADSVKGSFTISRDNAKNTVYLQMNSLKPEDTAVYYCADDNPSYNLWYGYWGQGTQVTVSS”, the “polyreactivity (PSR sort gate)” value was “low polyreactivity”.

“QVLLVESGGGLVQAGGSLRLSGAASGRTFRRNAIGWYRQAPGKERELVAAISASGGSTYYADSVKGRFTISRDNAMNTVYLEMNSLKPEDTADYYCAAVSQTTYWGQGTQVTVSS”: the “polyreactivity (PSR sort gate)” value is recorded as “high polyreactivity”.
